For nine molecules, Kd results are on record in patent US20180037892, “EPCAM APTAMERS AND CONJUGATES THEREOF” (Deakin University, published 2018).

For series [1], the target named is T1, EpCAM (UniProt P16422 P16422:24-314).
T1 sequence: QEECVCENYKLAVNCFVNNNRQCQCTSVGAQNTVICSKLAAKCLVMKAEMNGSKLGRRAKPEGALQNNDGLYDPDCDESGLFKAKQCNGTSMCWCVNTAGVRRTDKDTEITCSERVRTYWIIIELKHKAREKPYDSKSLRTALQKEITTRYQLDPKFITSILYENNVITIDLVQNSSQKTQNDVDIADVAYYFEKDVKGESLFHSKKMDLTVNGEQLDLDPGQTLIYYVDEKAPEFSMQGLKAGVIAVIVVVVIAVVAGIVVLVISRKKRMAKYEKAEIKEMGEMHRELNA
Description: flow; HEY cells, 37 C. The settings on record: tags: native EpCAM on HT29 or HEY cells, label: 5' TYE665, hairpin. As to the method:
(§1) The equilibrium dissociation constant (KD) of each DNA EpCAM aptamer (Ep7, Ep8 and Ep9) was determined by measuring its binding to native EpCAM protein expressed on the cell surface using flow cytometry. HT29, HEY and HEK293T (5×10⁵) cells were first incubated with blocking buffer (PBS containing 10% FCS, 1 mg/mL tRNA, 1 mg/mL BSA) for 30 minutes followed by a single wash with binding buffer (PBS containing 10% FCS, 1 mg/mL tRNA, 1 mg/mL BSA) prior to incubation with serial dilutions of concentrations of the respective TYE665-labelled aptamers (0 to 200 nM) in binding buffer for 30 min at 37° C. The cells were washed three times with PBS and resuspended in PBS prior to flow cytometric analysis. The fluorescent intensity was determined using a FACS Canto II flow cytometer (Becton Dickinson), counting 10,000 events for each sample. The mean fluorescent intensity of each concentration was subtracted from that of the auto fluorescent control and the KD for each aptamer was calculated from the normalised values for fluorescent intensity.

Series [2] has as its target T1, EpCAM. Description: flow; HT29 cells, 37 C; no binding to EpCAM-negative HEK293T and K562. The settings on record: tags: native EpCAM on HT29 or HEY cells; label: 5' TYE665; hairpin. As for the experimental part:
as §1

Series [3] deals with T2, Transferrin receptor (TfR) (Mus musculus, UniProt Q62351 Q62351:1-763). Description: flow; bEnd.3 cells, 1 mM MgCl2 folding, 37 C; text gives 365.6. The following applies: tags: native TfR on bEnd.3 mouse cerebral endothelial cells; chain copies: 2; label: 5' TYE665; hairpin.
T2 sequence (Q62351 whole entry, one chain of several): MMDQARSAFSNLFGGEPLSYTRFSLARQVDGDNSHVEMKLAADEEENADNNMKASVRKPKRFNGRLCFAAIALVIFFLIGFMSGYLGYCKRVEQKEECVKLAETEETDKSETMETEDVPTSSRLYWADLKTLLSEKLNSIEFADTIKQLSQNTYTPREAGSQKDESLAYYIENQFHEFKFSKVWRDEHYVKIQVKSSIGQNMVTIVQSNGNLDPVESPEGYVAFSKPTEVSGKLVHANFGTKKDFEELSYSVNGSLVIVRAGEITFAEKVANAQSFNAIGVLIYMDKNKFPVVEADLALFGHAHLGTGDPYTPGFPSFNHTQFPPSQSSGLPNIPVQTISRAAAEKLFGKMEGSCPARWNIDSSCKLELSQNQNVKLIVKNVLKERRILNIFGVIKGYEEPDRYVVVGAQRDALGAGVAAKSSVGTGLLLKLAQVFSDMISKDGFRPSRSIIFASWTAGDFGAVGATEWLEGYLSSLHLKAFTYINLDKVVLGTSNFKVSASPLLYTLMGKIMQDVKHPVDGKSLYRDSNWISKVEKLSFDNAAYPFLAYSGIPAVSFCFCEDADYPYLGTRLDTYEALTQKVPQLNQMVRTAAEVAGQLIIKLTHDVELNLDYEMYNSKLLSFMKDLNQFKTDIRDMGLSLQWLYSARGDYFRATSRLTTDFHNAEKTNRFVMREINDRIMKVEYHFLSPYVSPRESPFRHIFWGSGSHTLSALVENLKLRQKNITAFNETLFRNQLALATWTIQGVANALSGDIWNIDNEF
The target in series [4] is T1, EpCAM. Description: flow; HEY cells, 37 C; not internalised. The following applies: tags: native EpCAM on HT29 or HEY cells; label: 5' TYE665; hairpin.
Series [5] has as its target T1, EpCAM. Nature of the series: flow; HEY cells, scrambled EpCAM loop, 5 mM MgCl2 folding, 37 C. The following applies: tags: native EpCAM on HT29 or HEY cells; label: 5' TYE665; two hairpins. As to the method:
(§2) In order to determine the binding affinity (equilibrium dissociation constant KD) of the aptamers. Binding assays were conducted to measure the binding to native EpCAM protein expressed on the cell surface. The aptamers were incubated with the cells at concentrations ranging from 0 nM to 400 nM. These were subsequently analysed by flow cytometry. Aptamers were thawed from storage (−20° C.) prior to use. These were then diluted via serial dilutions with phosphate buffered saline (PBS) in order to achieve the desired concentrations. PBS was supplemented with a MgCl₂ concentration appropriate for the aptamer (1 mM for anti-TfR aptamers; 5 mM for conjugate aptamers). Aptamers were then folded into their 3D structures using a thermocycler (85° C. for 5 minutes, slow cooling to 22° C. over 10 minutes and 37° C. for 15 minutes).
(§3) The binding affinities of aptamers Bi1, Bi2 and Bi3 were determined semi-quantitatively via flow cytometry, using bEnd.3 cells to assess reactivity with TfR, HEY cells to determine EpCAM specificity and the MOLT4 cell line as a negative control. Three independent binding assays were performed for these aptamer against all three cell lines (bEnd.3, HEY and MOLT4).

In series [6] the target is T2, Transferrin receptor (TfR). Description: flow; bEnd.3 cells, 5 mM MgCl2 folding, 37 C; not internalised. The following applies: tags: native TfR on bEnd.3 mouse cerebral endothelial cells; chain copies: 2; label: 5' TYE665; two hairpins. As to the method: as §2, §3
In series [7] the target is T2, Transferrin receptor (TfR). Description: flow; bEnd.3 cells, 1 mM MgCl2 folding, 37 C. The settings on record: tags: native TfR on bEnd.3 mouse cerebral endothelial cells; chain copies: 2; label: 5' TYE665; hairpin.
For series [8], the target named is T1, EpCAM. Nature of the series: flow; HEY cells, 5 mM MgCl2 folding, 37 C. The settings on record: tags: native EpCAM on HT29 or HEY cells; label: 5' TYE665; two hairpins. As to the method: as §2, §3
Series [9] concerns the target T2, Transferrin receptor (TfR). Description: flow; bEnd.3 cells, 5 mM MgCl2 folding, 37 C. The following applies: tags: native TfR on bEnd.3 mouse cerebral endothelial cells; chain copies: 2; label: 5' TYE665; two hairpins. As to the method: as §2, §3
Series [10] addresses T2, Transferrin receptor (TfR). Nature of the series: flow; bEnd.3 cells, 5 mM MgCl2 folding, 37 C; text gives 305.5. The settings on record: tags: native TfR on bEnd.3 mouse cerebral endothelial cells; chain copies: 2; label: 5' TYE665; two hairpins. As for the experimental part:
as §2, §3

Turning to GGGGTTGGCCCCT (ssDNA, 3' inverted dT [13 (3' inverted dT)]) [Ep9], the Kd (in general, the equilibrium constant for the complex coming apart) with EpCAM [1] was 266 nM; with EpCAM [2], 31.8 nM.

In turn, GCGTGGTACCACGC (ssDNA, 3' inverted dT) [TfR3] displayed a Kd in [3] of 366 nM.

In turn, CGCGCGCCGCATTCCTTTTGCGGCGCGCGT (ssDNA, 3' inverted dT [30 (3' inverted dT)]) [Scr Ex Ep7 (scrambled extended Ep7)] yielded a Kd with EpCAM [4] of 521 nM.

Turning to GCGCGTGCACGCGCTAACGGATTCCTTTTCCGT (ssDNA, 3' inverted dT) [Bi1 (TENN conjugate, TfR1 loop + scrambled Ep7 loop)], the Kd with EpCAM [5] turned out to be 921 nM; in series [6], 1690 nM.

In the series with EpCAM [1] (10 bp stem), CGCGCGCCGCAGGTTGCGTGCGGCGCGCGT (ssDNA, 3' inverted dT [30 (3' inverted dT)]) [Ex Ep7 (extended Ep7)] gave a Kd of 63.7 nM.

As to GCGTGGGCCCACGC (ssDNA, 3' inverted dT) [TfR2], binding in [7] was characterised by a dissociation constant (Kd) of 525 nM.

With GCGTGTGCACACGC (ssDNA, 3' inverted dT) [TfR1], in [7], binding was characterised by a dissociation constant (Kd) of 5760 nM.

Turning to GCGCGGTACCGCGCTAACGGAGGTTGCGTCCGT (ssDNA, 3' inverted dT) [Bi3 (TEPP, TfR3 loop + Ep7 loop conjugate)], the Kd in the series with EpCAM [8] came out at 219 nM; in series [9] it was 342 nM.

Take GCGCGGGCCCGCGCTAACGGAGGTTGCGTCCGT (ssDNA, 3' inverted dT) [Bi2 (TfR2 loop + Ep7 loop conjugate)]: the Kd with EpCAM [8] worked out at 205 nM; in [10], 305 nM.
